Patent US20240369485A1, “FLUORESCENT SENSOR FOR MONITORING CALCIUM DYNAMICS” (priority 2021, published 2024)
Numbering of substitutions follows the chain as printed. Names and notes keep the numbering of the source. “Also recorded” adds a separate entry of the source.

How the values were obtained:
CaSR (wildtype) = target: T1, CaSR (wildtype) (Homo sapiens, UniProt P41180); experiment: Epifluorescence imaging of CaSR mediated ER Ca^2+ dynamics using R-CatchER and Fura-2 in HEK293 cells; type: cell-based; details: for effect on frequency of ER Ca^2+ oscillations: in the presence of Ca^2+, HEK293 CaSR, R-CatchER; for effect on cytosolic and ER Ca^2+ oscillations: Tg 3 μM, 2-APB 100 μM, ionomycin 20 μM with 10 mM Ca^2+
T1 construct: expressed in transfected cells; host or cells: HEK293
T1 sequence (P41180 20-1078): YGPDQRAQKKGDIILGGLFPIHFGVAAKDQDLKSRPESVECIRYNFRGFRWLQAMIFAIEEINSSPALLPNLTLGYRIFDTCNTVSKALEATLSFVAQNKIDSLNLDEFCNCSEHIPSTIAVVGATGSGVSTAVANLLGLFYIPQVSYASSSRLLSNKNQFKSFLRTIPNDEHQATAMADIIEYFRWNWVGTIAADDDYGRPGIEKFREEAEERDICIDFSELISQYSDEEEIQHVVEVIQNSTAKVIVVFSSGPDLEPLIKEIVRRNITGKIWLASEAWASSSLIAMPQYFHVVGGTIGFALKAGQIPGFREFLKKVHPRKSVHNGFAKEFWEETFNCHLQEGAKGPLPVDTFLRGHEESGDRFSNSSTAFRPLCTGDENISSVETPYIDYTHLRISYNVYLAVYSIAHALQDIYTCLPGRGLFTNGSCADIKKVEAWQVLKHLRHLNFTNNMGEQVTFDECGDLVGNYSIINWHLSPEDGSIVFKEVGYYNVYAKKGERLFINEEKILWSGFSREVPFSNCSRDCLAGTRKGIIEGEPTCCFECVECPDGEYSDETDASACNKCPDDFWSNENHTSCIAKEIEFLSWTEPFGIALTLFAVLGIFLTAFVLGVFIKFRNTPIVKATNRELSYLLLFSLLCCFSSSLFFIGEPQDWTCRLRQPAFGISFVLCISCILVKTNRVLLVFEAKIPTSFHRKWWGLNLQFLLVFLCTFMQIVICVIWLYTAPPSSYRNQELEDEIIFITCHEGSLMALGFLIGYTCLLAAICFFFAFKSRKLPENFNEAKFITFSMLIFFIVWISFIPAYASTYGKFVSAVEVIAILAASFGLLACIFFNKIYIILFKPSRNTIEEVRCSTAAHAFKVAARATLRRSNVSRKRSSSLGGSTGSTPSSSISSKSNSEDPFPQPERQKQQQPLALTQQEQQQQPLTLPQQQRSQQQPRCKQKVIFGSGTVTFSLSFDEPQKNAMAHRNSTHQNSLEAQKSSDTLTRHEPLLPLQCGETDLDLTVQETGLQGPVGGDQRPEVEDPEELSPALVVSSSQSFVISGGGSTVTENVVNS
Protocol: (§1) Cell culture and transfection. C2C12, HEK293 and HeLa cells were cultured and maintained in Dulbecco's modified Eagle's medium (DMEM) supplemented with 10% fetal bovine serum (FBS) and high glucose (4.5 g/L) at 37° C. R-CatchER, G-CatchER2, G-CEPIA1er, R-CEPIA1er or R-CatchER with GFP-CaSR (wt and mutations) were transfected into cells using Lipofectamine 3000 (Life Technologies), following the manufacturer's instructions. Seed cells onto sterilized 22 mm×40 mm glass microscope slides in 6 cm dishes until about 70% confluency, the day of transfection. The next day, 2 μg of plasmid were mixed with transfection reagent in the reduced serum media Opti-MEM for 4-6 h at 37° C. The media was then replaced with 3 mL of fresh DMEM and incubated at 37° C. for 48 h.
Epifluorescence imaging of class C GPCR mediated ER Ca^2+ dynamics using R-CatchER and Fura-2. HEK293 Cells transfected with R-CatchER and GFP-CaSR (wt and mutations) were incubated with Fura-2 for 30 mins at 37° C. then washed with 2 mL of physiological Ringer buffer (10 mM HEPES, 140 mM NaCl, 5 mM KCl, 1.2 mM MgCl2, 1.8 mM CaCl2) at pH 7.4). The coverslips were mounted on a bath chamber and placed on the stage of a Leica DM6100B inverted microscope with a Hamamatsu cooled EM-CCD camera and illuminated with a Till Polychrome V Xenon lamp. Cells were illuminated at 340 nm, 380 nm and 569 nm, in real-time, as cells were exposed to different concentrations of Ca^2+, cinacalcet, Phe, TNCA, or NPS2143.

CaSR E297K = target: T2, CaSR E297K (Homo sapiens, UniProt P41180, E297K); experiment: Epifluorescence imaging of CaSR mediated ER Ca^2+ dynamics using R-CatchER, E297K mutant; type: cell-based; details: E297K mutant with TNCA (500 μM)
T2 construct: expressed in transfected cells; host or cells: HEK293
T2 sequence (P41180 20-1078 E297K): T1 sequence (P41180 20-1078) with E278K
Protocol: as §1
Epifluorescence imaging of class C GPCR mediated ER Ca^2+ dynamics using R-CatchER and Fura-2. HEK293 Cells transfected with R-CatchER and GFP-CaSR (wt and mutations) were incubated with Fura-2 for 30 mins at 37° C. then washed with 2 mL of physiological Ringer buffer (10 mM HEPES, 140 mM NaCl, 5 mM KCl, 1.2 mM MgCl2, 1.8 mM CaCl2) at pH 7.4). The coverslips were mounted on a bath chamber and placed on the stage of a Leica DM6100B inverted microscope with a Hamamatsu cooled EM-CCD camera and illuminated with a Till Polychrome V Xenon lamp. […]

[1] = In vitro kinetics by stopped flow spectrofluorometer; type: binding; details: stopped-flow, dead time 2.2 ms, 20° C.
Protocol: In vitro kinetics by stopped flow spectrofluorometer. The kinetics were determined by a Hi-Tech SF-61 stopped-flow spectrofluorometer equipped with the mercury-Xe lamp (10 mm path length, dead time of 2.2 ms) at 20° C. For R-CatchER and its variant or R-CEPIA1er, excitation was at 569 nm and a long-pass 590 nm filter was used. For G-CEPIA1er, a 530 nm long-pass filter was set with excitation at 498 nm, while for MCD1, excitation at 587 nm and a long-pass 600 nm filter were applied. For association kinetics, R-CatchER, R-CatchER variant, MCD1, R-CEPIA1er, and G-CEPIA1er were mixed with the same buffer containing an increasing concentration of Ca^2+. For disassociation kinetics, R-CatchER, R-CatchER variant, MCD1, R-CEPIA1er, and G-CEPIA1er in buffers with concentration of Ca^2+ at Kd, were mixed with 5 mM EGTA or buffer. The raw data were fitted using either single exponential for R-CatchER, R-CatchER variant, and MCD1, or double exponential equations for R-CEPIA1er and G-CEPIA1er.

[2] = pKa determination of the chromophore; type: physicochemical
Protocol: pKa determination. To measure the chromophore pKa of mApple, EGFP, and mCherry variants, the proteins were prepared in buffers (sodium acetate buffer for pH 3-5, MES buffer for pH 5-6, HEPES buffer for pH 6.5-8, TRIS buffer for pH 8.5-9) covering a pH range from 3 to 10. All samples were Incubated at 4° C. overnight, then the following day, the absorbance and fluorescence spectra were collected using a Shimadzu UV-1601 spectrophotometer and the Spectrofluorimeter.

[3] = Calcium (Ca^2+) binding assay: fluorescence/absorbance titration of purified protein
Protocol: Calcium (Ca^2+) binding assay. 10 μM protein samples of mApple, EGFP, and mCherry variants were titrated with different concentrations of Ca^2+. Data were fitted with a 1:1 binding equation. Fluorescence intensities were collected using a Spectrofluorimeter (Photon Technology International, Inc.) and the absorbance values of Ca^2+-free and Ca^2+-loaded forms were determined using a Shimadzu UV-1601 spectrophotome.
Ca^2+ binding assay. Fluorescence measurements of mApple variants with increasing Ca^2+ concentrations were done in order to obtain the affinity of the sensor for Ca^2+ in vitro. Samples of 10 μM mApple variants with 5 μM EGTA were prepared in triplicate in 1 mL volumes in 10 mM Tris, pH 7.4. The samples were placed in quartz fluorescence cuvettes, and metal ion was titrated into each sample, in a stepwise manner, using 0.1 M and 1 M metal stock solutions. The fluorescence response of the indicator to increasing Ca^2+ concentrations was monitored using a fluorescence spectrophotometer (Photon Technology International, Canada) with the Felix32 fluorescence analysis software. The absorbance spectra before and after titration were obtained using a Shimadzu UV-1601 spectrophotometer.

HeLa cells = experiment: Epifluorescence imaging of mitochondria Ca^2+ dynamics; type: cell-based; details: 100 μM histamine
Protocol: as §1, with “transfection.” for “transfection. C2C12, HEK293 and”, “DMEM” for “Dulbecco's modified Eagle's medium (DMEM)”, “FBS” for “fetal bovine serum (FBS)”, “Individual plasmids” for “R-CatchER, G-CatchER2, G-CEPIA1er, R-CEPIA1er or R-CatchER with GFP-CaSR (wt and mutations)”
Epifluorescence imaging of mitochondria Ca^2+ dynamics. The coverslips with HeLa Cells transfected with mitochondria indicators were mounted on a bath chamber and placed on the stage of a Leica DM6100B inverted microscope with a Hamamatsu cooled EM-CCD camera and illuminated with a Till Polychrome V Xenon lamp. Cells were illuminated at 569 nm, in real-time. Fluorescence images of samples were recorded as the concentration of ER Ca^2+ was perturbed by perfusion of 100 μM histamine.

O=C(O)[C@@H]1Cc2c([nH]c3ccccc23)CN1 [TNCA, L-1,2,3,4-tetrahydronorharman-3-carboxylic acid]
effect on frequency of ER Ca^2+ oscillations (CaSR (wildtype)): increased the frequency
Hill coefficient (cooperativity) (CaSR E297K): 3.08±0.40

C/C=C(/C)C(=O)O[C@H]1C(C)=C2[C@H]([C@@H]1OC(=O)CCCCCCC)[C@@](C)(OC(C)=O)C[C@H](OC(=O)CCC)[C@@]1(O)[C@H]2OC(=O)[C@@]1(C)O [Tg, Thapsigargin]
effect on cytosolic and ER Ca^2+ oscillations (CaSR (wildtype)): eliminated; also recorded: elimination

NCCOB(c1ccccc1)c1ccccc1 [2-APB, 2-Aminoethoxydiphenyl borate]
effect on cytosolic and ER Ca^2+ oscillations (CaSR (wildtype)): eliminated; also recorded: elimination

C[C@@H](NCCCc1cccc(C(F)(F)F)c1)c1cccc2ccccc12 [Cinacalcet]
effect on frequency of ER Ca^2+ oscillations (CaSR (wildtype)): increased the frequency

B1: MCD1: mCherry A145E/S147E/N196D/K198D/R216E, best mCherry-based variant, SEQ ID NO: 32 (protein)
chain: EEDNMAIIKEFMRFKVHMEGSVNGHEFEIEGEGEGRPYEGTQTAKLKVTKGGPLPFAWDILSPQFMYGSKAYVKHPADIPDYLKLSFPEGFKWERVMNFEDGGVVTVTQDSSLQDGEFIYKVKLRGTNFPSDGPVMQKKTMGWEESEERMYPEDGALKGEIKQRLKLKDGGHYDAEVKTTYKAKKPVQLPGAYNVDIDLDITSHNEDYTIVEQYEEAEGRHSTGGMDELYK
Ca^2+ association rate kon [1]: ≥ 3e+07 M⁻¹ s⁻¹
apparent pKa ([2]; 0 mM Ca^2+): 4.31±0.01
apparent pKa ([2]; 10 mM Ca^2+): 4.30±0.01
Fmax/Fmin ([3]; mCherry based indicators, Ca^2+ induced fluorescence change): 1.13 ± 0.01

B2: mApple A145E/K198D/R216E: mApple variant, SEQ ID NO: 25; starting point of mitochondria indicator (protein)
chain: EENNMAIIKEFMRFKVHMEGSVNGHEFEIEGEGEGRPYEAFQTAKLKVTKGGPLPFAWDILSPQFMYGSKVYIKHPADIPDYFKLSFPEGFRWERVMNFEDGGIIHVNQDSSLQDGVFIYKVKLRGTNFPSDGPVMQKKTMGWEESEERMYPEDGALKSEIKKRLKLKDGGHYAAEVKTTYKAKKPVQLPGAYIVDIDLDIVSHNEDYTIVEQYEEAEGRHSTGGMDELYK
fluorescence intensity change of mitochondria targeted indicator (HeLa cells): no fluorescence change was observed
Fmax/Fmin ([3]; EGFP and mApple variants): 3.80
Aholo/Aapo ([3]; absorbance at 569): 1.60 (569)
Kd ([3]; in vitro, purified protein, read-out: Kd for Ca^2+ binding): 290 ± 20 µM
